Molecular target: DNA (cytosine-5) methyltransferase (Homo sapiens, UniProt P26358 P26358:1-1616)
Assay: tritiated AdoMet methyl transfer, 37 C, HEPES pH 7.0, 50 mM NaCl, 75 uM spermine; methyl at short arm end stimulates rate
Settings: tags: none; purified from human placenta (partially purified/crude preparation for the covalent complexes); gapped foldback with L5 linker loop
Procedure: For the determination of initial velocities with oligodeoxynucleotide substrates, the enzyme was dialyzed for 3 hours in a Hoefer microdialyzer (Health Products Inc., Rockford, Ill.) against 38 mM glycine, 17% v/v glycerol, 5 mM Tris, 10 mM β-mercaptoethanol, pH 7.8 at 4° C. The final reaction volume of 100 μl contained: 0.4 μg total DNA, 50 mM HEPES pH 7.0, 50 mM NaCl, 2 mM DTT, 75 μM Spermine, 10% v/v glycerol and […] [^3H]AdoMet (Amersham, 15 Ci/mmole). Reaction mixtures were preincubated at 37° C. for 15 minutes before the addition of 44 U of DNA methyltransferase to initiate the reaction. The reaction rate was linear under these conditions for 30 minutes. After 20 minutes of incubation, the reactions were stopped by the addition of 5 ml of cold TCA (5% w/v TCA containing 5 mM potassium pyrophosphate). Tritium incorporated into TCA insoluble DNA was determined as previously described (Smith, S. S., supra).

DNA (cytosine-5) methyltransferase, sequence (P26358 whole entry, one chain of several): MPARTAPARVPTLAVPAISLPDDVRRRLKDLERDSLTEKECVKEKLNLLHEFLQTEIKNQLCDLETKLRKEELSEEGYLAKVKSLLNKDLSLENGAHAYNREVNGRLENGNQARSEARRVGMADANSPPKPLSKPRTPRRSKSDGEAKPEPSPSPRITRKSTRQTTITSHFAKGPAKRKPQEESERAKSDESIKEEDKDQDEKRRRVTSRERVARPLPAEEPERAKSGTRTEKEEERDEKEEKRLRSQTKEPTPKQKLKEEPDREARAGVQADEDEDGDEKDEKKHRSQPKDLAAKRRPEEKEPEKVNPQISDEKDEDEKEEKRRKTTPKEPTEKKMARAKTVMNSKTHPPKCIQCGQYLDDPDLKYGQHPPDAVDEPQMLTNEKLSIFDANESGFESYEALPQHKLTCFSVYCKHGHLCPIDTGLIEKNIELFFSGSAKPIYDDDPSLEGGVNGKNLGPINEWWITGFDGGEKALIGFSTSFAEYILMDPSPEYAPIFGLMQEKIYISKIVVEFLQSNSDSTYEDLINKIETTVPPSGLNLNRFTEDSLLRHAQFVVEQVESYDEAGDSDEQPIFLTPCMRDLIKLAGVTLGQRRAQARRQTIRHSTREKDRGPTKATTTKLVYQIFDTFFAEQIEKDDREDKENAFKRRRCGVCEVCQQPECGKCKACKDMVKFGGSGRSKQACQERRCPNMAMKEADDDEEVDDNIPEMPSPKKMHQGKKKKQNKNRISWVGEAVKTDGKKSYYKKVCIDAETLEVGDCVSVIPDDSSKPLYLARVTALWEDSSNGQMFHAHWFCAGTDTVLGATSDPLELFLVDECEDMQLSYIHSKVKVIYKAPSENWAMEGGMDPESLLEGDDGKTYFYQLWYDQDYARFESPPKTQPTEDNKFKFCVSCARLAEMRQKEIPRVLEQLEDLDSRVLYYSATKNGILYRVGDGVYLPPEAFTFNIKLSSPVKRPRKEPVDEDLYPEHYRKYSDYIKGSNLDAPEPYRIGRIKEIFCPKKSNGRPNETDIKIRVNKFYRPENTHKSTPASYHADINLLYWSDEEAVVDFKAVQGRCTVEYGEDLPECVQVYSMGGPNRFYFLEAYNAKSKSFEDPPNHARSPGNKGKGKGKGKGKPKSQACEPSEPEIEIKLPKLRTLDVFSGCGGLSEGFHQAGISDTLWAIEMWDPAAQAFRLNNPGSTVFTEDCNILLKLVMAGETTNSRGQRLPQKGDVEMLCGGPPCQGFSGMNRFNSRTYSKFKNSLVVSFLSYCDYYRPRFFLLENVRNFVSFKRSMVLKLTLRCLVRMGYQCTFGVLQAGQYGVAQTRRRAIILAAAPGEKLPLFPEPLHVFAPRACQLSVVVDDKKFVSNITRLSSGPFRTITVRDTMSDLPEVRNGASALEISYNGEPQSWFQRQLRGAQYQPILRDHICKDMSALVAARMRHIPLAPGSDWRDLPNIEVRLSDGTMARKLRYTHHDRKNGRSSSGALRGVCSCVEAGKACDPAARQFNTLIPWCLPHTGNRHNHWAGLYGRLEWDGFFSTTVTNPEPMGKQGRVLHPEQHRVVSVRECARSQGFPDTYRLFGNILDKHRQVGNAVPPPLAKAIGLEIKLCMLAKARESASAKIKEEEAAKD

B1: 48L-1 (structured_DNA)
DNA: TCGAGGCCAGGTAGCCCGGATCTGGTGGACGTCCACCAGATCC
modifications: five non-nucleotide linker units between 30mer and 13mer; 5mC at end of short arm
  activity: > 100 fold stimulation

From patent publication US5503975, “Mechanism based inhibitors of DNA methyltransferase” (City of Hope)
